Test results published in publication PMC9513805, “A natural transdifferentiation event involving mitosis is empowered by integrating signaling inputs with conserved plasticity factors”.

Columns and labels:
SOX-2;HMG-POP-1-FLAG [1] = target: T1, SOX-2;HMG-POP-1-FLAG (Caenorhabditis elegans;Caenorhabditis …, UniProt Q21305;Q10666 1-283;181-281, |); test: EMSA; co-incubation; upper co-binding band, supershift series with anti-HA and/or anti-FLAG; 20 mM Tris-HCl pH 8.0, 100 mM NaCl, 100 ug/mL BSA, 1 mM EDTA, 1 mM DTT, 0.1% NP-40; 20 min on ice (supershift 30 min at room temperature), 200 ng Cy5 probe; 6%; details: protein: recombinant;recombinant; tags: N-terminal 6xHis, C-terminal HA (pSJ6094);N-terminal 6xHis, C-terminal FLAG (pSJ1107); copies: 1;1; label: Cy5 on forward strand; blunt
T1 sequence (Q21305 whole entry, chain 1 of 2): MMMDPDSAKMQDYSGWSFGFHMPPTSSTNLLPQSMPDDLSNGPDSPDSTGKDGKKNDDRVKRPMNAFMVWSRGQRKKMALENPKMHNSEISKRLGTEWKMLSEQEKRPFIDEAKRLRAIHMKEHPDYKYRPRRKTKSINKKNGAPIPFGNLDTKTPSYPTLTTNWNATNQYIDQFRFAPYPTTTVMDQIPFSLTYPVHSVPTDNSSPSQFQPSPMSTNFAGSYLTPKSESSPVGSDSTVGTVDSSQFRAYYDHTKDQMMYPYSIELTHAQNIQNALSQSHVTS
T1 sequence (Q10666 181-281, chain 2 of 2): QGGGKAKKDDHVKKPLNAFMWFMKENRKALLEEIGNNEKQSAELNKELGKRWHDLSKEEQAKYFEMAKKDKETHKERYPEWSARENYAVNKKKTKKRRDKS

SOX-2;HMG-POP-1-FLAG [2] = target: T1, SOX-2;HMG-POP-1-FLAG; test: EMSA supershift; anti-FLAG; 20 mM Tris-HCl pH 8.0, 100 mM NaCl, 100 ug/mL BSA, 1 mM EDTA, 1 mM DTT, 0.1% NP-40; 20 min on ice (supershift 30 min at room temperature), 200 ng Cy5 probe; 6%; details: protein: recombinant;recombinant; tags: N-terminal 6xHis, C-terminal HA (pSJ6094);N-terminal 6xHis, C-terminal FLAG (pSJ1107); copies: 1;1; label: Cy5 on forward strand; blunt
SOX-2;HMG-POP-1 = SOX-2;HMG-POP-1 (Caenorhabditis elegans;Caenorhabditis …, UniProt Q21305;Q10666 1-283;181-281, |); test: EMSA; SOX-2 125-500 nM added to HMG-POP-1; upper shift, most probably ternary complex; 20 mM Tris-HCl pH 8.0, 100 mM NaCl, 100 ug/mL BSA, 1 mM EDTA, 1 mM DTT, 0.1% NP-40; 20 min on ice (supershift 30 min at room temperature), 200 ng Cy5 probe; 6%; details: protein: recombinant;recombinant; tags: N-terminal 6xHis, C-terminal HA (pSJ6094);N-terminal 6xHis (pSJ769); copies: 1;1; label: Cy5 on forward strand; blunt
SOX-2;HMG-POP-1, sequence (Q21305 whole entry, chain 1 of 2): as the sequence (Q21305 whole entry, chain 1 of 2) above
SOX-2;HMG-POP-1, sequence (Q10666 181-281, chain 2 of 2): as the sequence (Q10666 181-281, chain 2 of 2) above

B1: lim-6 intron 4 probe 2 (dsDNA)
DNA 1: CTGCTACCGTAGTGCTTTGTTGATTTAACACACA
DNA 2: TGTGTGTTAAATCAACAAAGCACTACGGTAGCAG
binding result (SOX-2;HMG-POP-1-FLAG [1]): binds

B2: lim-6 intron 4 probe 1 (dsDNA)
DNA 1: TACGATTTGCAAACAACAAACATTCCAGACAGAT
DNA 2: ATCTGTCTGGAATGTTTGTTGTTTGCAAATCGTA
binding result (SOX-2;HMG-POP-1-FLAG [2]): binds
binding result (SOX-2;HMG-POP-1): binds
